According to patent US20190353654A1 (published 2019):

Legend:
[1] = molecular target: T1, HIV-1 coat protein gp41-120 (HIV-1); test: MicroScale Thermophoresis, labeled receptor, ligand titrated, in buffer (1x PBS, 5 mM DTT)
T1 construct: also called HIV coat proteins gp41-120; HIV surface protein gp41-120

[2] = molecular target: T1, HIV-1 coat protein gp41-120; test: MicroScale Thermophoresis, labeled receptor, ligand titrated, in 50% human serum
human insulin = human insulin (human, UniProt P01308 25-54; P01308 90-110); test: MicroScale Thermophoresis, 5 nM labeled receptor, insulin titrated
CXCL11 [3] = molecular target: T2, CXCL11 (UniProt O14625 22-94); test: MicroScale Thermophoresis, labeled receptor, ligand titrated, in buffer (1x PBS, 5 mM DTT)
T2 sequence (looked up): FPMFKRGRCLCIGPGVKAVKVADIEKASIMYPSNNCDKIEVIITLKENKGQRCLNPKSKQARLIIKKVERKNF

CXCL11 [4] = molecular target: T2, CXCL11; test: MicroScale Thermophoresis, labeled receptor, ligand titrated, in 50% human serum
[5] = molecular target: T1, HIV-1 coat protein gp41-120; test: as above; remark: listed apart in the source
CCL28 [6] = molecular target: T3, CCL28 (UniProt Q9NRJ3 20-127); test: MicroScale Thermophoresis, labeled receptor, ligand titrated, in buffer (1x PBS, 5 mM DTT)
T3 construct: range 20-127; also called CCL2820-127
T3 sequence (looked up): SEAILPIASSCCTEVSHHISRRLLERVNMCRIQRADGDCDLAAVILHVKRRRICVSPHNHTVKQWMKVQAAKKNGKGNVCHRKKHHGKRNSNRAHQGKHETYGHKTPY

CCL27 [7] = molecular target: T4, CCL27 (UniProt Q9Y4X3 25-112, limits assumed); test: as above
T4 sequence (looked up): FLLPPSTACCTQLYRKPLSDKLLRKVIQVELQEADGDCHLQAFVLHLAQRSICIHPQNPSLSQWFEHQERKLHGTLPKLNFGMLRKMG

CCL28 [8] = molecular target: T3, CCL28; test: MicroScale Thermophoresis, labeled receptor, ligand titrated, in 50% human serum
CCL27 [9] = molecular target: T4, CCL27; test: as above

B1: CCR5^QTY (receptor, not shown: small tags and cut ends)
chain: MDYQVSSPIYDINYYTSEPCQKINVKQIAARQQPPQYSQTFTYGFTGNMQTTQTQINCKRLKSMTDIYLQNQAISDQYYQQTTPYWAHYAAAQWDFGNTMCQQQTGQYFTGYYSGTYYTTQQTTDRYLAVVHAVFALKARTTTYGTTTSTTTWTTATYASQPGTTYTRSQKEGLHYTCSSHFPYSQYQFWKNFQTLKITIQGQVQPQQTMVTCYSGTQKTLLRCRNEKKRHRAVRQTFTTMTTYYQYWAPYNTTQQLNTFQEFFGLNNCSSSNRLDQAMQVTETQGMTHCCTNPTIYAYVGEKFRNYLLVFFQKHIAKRFCKCCSIFQQEAPERASSVYTRSTGEQEISVGL
modifications: Receptor labelled with NT647 dye (RED-NHS, on amines) for MST; sites not specified
notes: Expressed in SF9 insect cells and purified without detergent; also called detergent-free CCR5 variant
Kd [1]: 3.1 nM | Kd [2]: 4.3 nM | binding result (human insulin): no binding (tested: 0.153 nM-5,000 nM insulin)

B2: CXCR7^QTY (receptor)
chain: MDLHLFDYSEPGNFSDISWPCNSSDCIVVDTVMCPNMPNKSTQQYTQSYTYTYTYTTGMTANSVVVWVNIQAKTTGYDTHCYTQNQATADQWTTQTTPTWTTSLVQHNQWPMGELTCKTTHQTYSTNQYGSTYYQTCMSVDRYLSITYFTNTPSSRKKMVRRTTCTQTWQQAYCTSQPDTYYQKTVTSASNNETYCRSFYPEHSIKEWLIGMEQTSTTQGYATPYSTTATYYYQLARAISASSDQEKHSSRKTTYSYTTTYQTCWQPYHTATQLDIFSILHYIPFTCRLEHALFTAQHTTQCQSQTHCCTNPTQYSYTNRNYRYELMKAFIFKYSAKTGLTKLIDASRVSETEYSALEQSTK
modifications: The receptor was labelled with NT647 (RED-NHS dye on lysines, positions not defined) for MST. The letters do not carry this.
notes: Expressed in SF9 insect cells and purified without detergent; not shown: C-terminal His tag
Kd (CXCL11 [3]): 16 nM | Kd [1]: 1.2 nM | Kd (CXCL11 [4]): 28 nM | Kd [5]: 7 nM | binding result (human insulin): no binding (tested: 0.153 nM-5,000 nM insulin)

B3: CCR10^QTY (receptor, not shown: small tags and cut ends)
chain: MGTEATEQVSWGHYSGDEEDAYSAEPLPELCYKADVQAFSRAFQPSVSLTVAAQGQAGNGQTQATHQAARRAARSPTSAHQQQQAQADQQQAQTQPYAAAGALQGWSLGSATCRTTSGQYSASYHAGYQYQACTSADRYVAIARALPAGPRPSTPGRAHQTSTTTWQQSQQQAQPAQQYSQDGQREGQRRCRLIFPEGLTQTVKGASATAQTAQGYAQPQGTMTACYALLGRTLLAARGPERRRALRTTTAQTAAYTTQQQPYSQAQQQDTADLLAARERSCPASKRKDVAQQTTSGQAQARCGQNPTQYAYQGLRFRQDLRRLLRGGSCPSGPQPRRGCPRRPRLSSCSAPTETHSLSWDN
modifications: Receptor labelled with NT647 dye (RED-NHS, on amines) for MST; sites not specified
notes: Expressed in SF9 insect cells and purified without detergent
Kd (CCL28 [6]): 9.3 nM | Kd (CCL27 [7]): 3.1 nM | Kd (CCL28 [8]): 21 nM | Kd (CCL27 [9]): 5.6 nM | binding result (human insulin): no binding (tested: 0.153 nM-5,000 nM insulin)

B4: CXCR4^QTY (receptor, not shown: small tags and cut ends)
chain: MEGISIYTSDNYTEEMGSGDYDSMKEPCFREENANFNKTYQPTTYSTTYQTGTTGQGQTTQTMGYQKKQRSMTDKYRQHQSTADQQYTTTQPYWATDATANWYFGNFQCKATHTTYTTQQYSSTQTQAYTSQDRYLAIVHATNSQRPRKQQAEKTTYTGTWTPAQQQTTPDYTYANVSEADDRYICDRFYPNDLWTTTYQYQHTMTGQTQPGTTTQSCYCTTTSKLSHSKGHQKRKALKTTTTQTQAYYACWQPYYTGTSTDSFILLEIIKQGCEFENTVHKWTSTTEAQAYYHCCQQPTQYAYQGAKYKTSAQHAQTSTSRGSSQKTQSKGKRGGHSSTSTESESSSFHSS
modifications: Receptor labelled with NT647 dye (RED-NHS, on amines) for MST; sites not specified
Kd [1]: 117 nM | Kd [5]: 185 nM | binding result (human insulin): no binding (tested: 0.153 nM-5,000 nM insulin)
